Measurements as given in doi:10.1101/709196 (bioRxiv, 2019).

B1: SS-EGFP-SUN2^261-731 (domain or fragment, UniProt Q8BJS4 261-731, looked up)
chain: SWWAAKESRKQPEVWESRDASQHFQAEQRVLSRVHSLERRLEALAADFSSNWQKEAIRLERLELRQGAAGHGGGSSLSHEDALSLLEGLVSRREATLKEDLRRDTVAHIQEELATLRAEHHQDSEDLFKKIVQASQESEARVQQLKTEWKSMTQEAFQESSVKELGRLEAQLASLRQELAALTLKQNSVADEVGLLPQKIQAARADVESQFPDWIRQFLLGDRGARSGLLQRDEMHAQLQELENKILTKMAEMQGKSAREAAASLGQILQKEGIVGVTEEQVHRIVKQALQRYSEDRIGMVDYALESGGASVISTRCSETYETKTALLSLFGIPLWYHSQSPRVILQPDVHPGNCWAFQGPQGFAVVRLSARIRPTAVTLEHVPKALSPNSTISSAPKDFAIFGFDEDLQQEGTLLGTFAYDQDGEPIQTFYFQASKMATYQVVELRILTNWGHPEYTCIYRFRVHGEPAH

How the values were obtained:
[1] = target: SS-EGFP-SUN2^261-731 (UniProt Q8BJS4); test: dual-color fluorescence fluctuation spectroscopy
[2] = target: the molecule itself; test: dual-color fluorescence fluctuation spectroscopy

Row | Molecule | normalized brightness br (mCherry labels per complex) at Nr:Ng above 4:1 [1] | stoichiometry N ([1]; scale: mCherry-SR-KASH2 per SS-EGFP-SUN2^261-731) | stoichiometry N [2]
1 | mCherry-SR-KASH2 (from UniProt Q6ZWQ0 1-6874) (domain or fragment) | 3 | < 1 | –
2 | B1 | – | – | 3
